Where no end group is shown, it is not given here.
Assays:
platelets [1] = assay: 125I-fibrinogen binding to platelets; settings: 10 uM ADP; 37 degrees, 30 minutes
Procedure: Fibrinogen was isolated and labelled with ^125 I by standard methods as described by Marguerie et al., J. Biol. Chem., 255:154-161 (1980) to form ^125 I-Fg. Thereafter, the binding of ^125 I-Fg to platelets was assayed as described previously. Marguerie et al., J. Biol. Chem., 255:154-161 (1980). Binding was initiated by the admixture of a million resting platelets in the presence or absence of 10 micromolar adenosine diphosphate (ADP) to radiolabelled fibrinogen at varying concentrations from 0.01 to 1 nanomolar (nM) and incubation at 37 degrees for 30 minutes. Bound fibrinogen was separated from free fibrinogen by centrifugation of the platelet-fibrinogen admixture through 0.3 ml of 20% sucrose and the amount of radiolabelled fibrinogen associated with the cell pellet determined by gamma detection.

[2] = target: T1, GPIIb-IIIa on normal platelets (Homo sapiens, UniProt P05106+P08514); assay: Flow cytometry of platelet surface GPIIb-IIIa, normal (control) platelets; assay type: binding
T1 construct: Analysis of Platelet Surface GPIIb-IIIa by Flow Cytometry; from tissue; host or cells: platelets in platelet-rich plasma from venous blood of controls
Procedure: (§1) Samples were incubated without stirring in a total volume of 50 μL for 15 minutes at room temperature with agonists and peptides as indicated. Samples were then diluted to 0.5 mL with Tyrode's buffer and analyzed on a FACStar flow cytometer (Bectin-Dickinson Immunocytometry Systems, Mountain View, Calif.). Light scatter and fluorescence signals were acquired at logarithmic gain, and 10,000 platelets in each sample were analyzed. Results are expressed as mean platelet fluorescence intensity in arbitrary fluorescence units or as histograms of log platelet fluorescence intensity in arbitrary units on the abscissa and platelet number on the ordinate.

[3] = target: T2, GPIIb-IIIa on Cam platelets (Homo sapiens, UniProt P05106+P08514, D145Y); assay: Flow cytometry of platelet surface GPIIb-IIIa, Cam variant thrombasthenia platelets; assay type: binding
T2 construct: from tissue; host or cells: platelets in platelet-rich plasma from venous blood of two Cam variant siblings
From the text: FIGS. 2A through 2H show a flow cytometric analysis of the deficit in Cam variant of thrombasthenia. Shown are histograms with the log of fluorescence intensity on the abscissa and cell number on the ordinate. The reporting antibody is indicated in the left hand column. Cam platelets are shown in FIGS. 2A, 2C, 2E and 2G and the normal control in FIGS. 2B, 2D, 2F and 2H. Each column of figures contains a legend indicating the added agonist, peptide, or antibody. […] Similar data were obtained with other antibodies to GPIIb-IIIa (7E3, 10E5, 4F10) and an antibody to GPIIb (Tab). The Cam variant data shown are representative of determinations on two affected male siblings with identical results.
Based on the model depicted in FIG. 1, abnormal platelet aggregation can arise from a defect in the activation of platelet fibrinogen receptors, a defect in fibrinogen binding per se, or a defect in the postoccupancy events required for optimal aggregation. The potential usefulness of this model was tested by studying two patients with persistent and severe defects in platelet aggregation. To quantitate fibrinogen receptor activation and ligand binding, a fluorescein-labeled MoAb (PAC1) which specifically recognizes the activated form of GPIIb-IIIa, was employed (Shattil et al., J. Biol. Chem., 260:11107 (1985)). Antibody binding was measured in small (5 μL) samples of platelet rich plasma by flow cytometry.
Platelet rich plasma was obtained by taking venous blood from patients and controls who had not ingested medications for at least 10 days, anticoagulating with 1/10 volume of 3.8% sodium citrate, and sedimentating red and white blood cells at 180 g for 20 minutes at room temperature. Immediately thereafter, 5-μL aliquots of platelet-rich plasma were added to polypropylene tubes containing a fluorescein isothiocyanate-conjugated monoclonal antibody (10^-9 to 10^-6 mol/L) in Tyrode's buffer (1% bovine serum albumin, 2 mmol/L MgCl2, 137.5 mmol/L NaCl, 12 mmol/L NaHCO3, 2.6 mmol/L KCl, pH 7.4). Samples were incubated without stirring in a total volume of 50 μL for 15 minutes at room temperature with agonists and peptides as indicated. Samples were then diluted to 0.5 mL with Tyrode's buffer and analyzed on a FACStar flow cytometer (Bectin-Dickinson Immunocytometry Systems, Mountain View, Calif.). Light scatter and fluorescence signals were acquired at logarithmic gain, and 10,000 platelets in each sample were analyzed. Results are expressed as mean platelet fluorescence intensity in arbitrary fluorescence units or as histograms of log platelet fluorescence intensity in arbitrary units on the abscissa and platelet number on the ordinate.

normal GPIIb-IIIa = assay: KYGRGDS affinity chromatography of surface-labeled platelet lysate, normal platelets; assay type: binding, human
Procedure: (§2) To directly examine the ligand binding function of Cam GPIIb-IIIa, extracts of ^125 I surface-labeledplatelets were subjected to affinity chromatography using an immobilized RGD peptide.
(§3) Platelets were isolated from acid-citrate dextrose anticoagulated human blood by differential centrifugation followed by gel filtration on Sepharose 2B (Ginsberg et al., Blood, 69:58 (1987)). Lysates of surface-labeled platelets were analyzed by KYGRGDS affinity chromatography as described by Lam et al., J. Biol. Chem., 262:947 (1987). Briefly, intact platelets were radioiodinated by the lactoperoxidase-H2 O2 method then resuspended to 2×10^8 platelets/mL and solubilized in lysis buffer containing 10 mmol/L N-2-hydroxyethylpiperazine-N'-2-ethanesulfonic acid (HEPES), pH 7.5, 0.15 mol/L NaCl, 1 mmol/L CaCl2, 1 mmol/L MgCl2, 0.1 mmol/L leupeptin, 1 mmol/L phenylmethanesulfonylfluoride (PMSF), 10 mmol/L N-ethylmaleimide, and 50 mmol/L octylglucoside. […] Under these conditions approximately 10% of normal GPIIb-IIIa is bound and eluted.
(§4) The GPIIb-IIIa content in the starting material and in the column fractions was quantitated by use of a polyclonal anti-GPIIb-IIIa antibody in an ELISA assay. The control extract contained 332 μg; the Cam individual contained 240 μg in the starting extract. The eluted fractions from the control extract contained 20 μg GPIIb-IIIa. […]

Cam GPIIb-IIIa = assay: KYGRGDS affinity chromatography of surface-labeled platelet lysate, Cam platelets; assay type: binding, human; settings: Cam extract, 240 μg GPIIb-IIIa in starting extract; eluted with GRGDSP
Procedure: as §2, §3, §4

[4] = tested on: GPIIb-IIIa on MPD platelets; assay: Flow cytometry of platelet surface GPIIb-IIIa, myelofibrosis (MPD) patient platelets; assay type: binding, human
Procedure: The disclosing antibody is indicated in the left hand column. In each column, the legend indicates the added agonist or peptide. Agonist and peptide concentrations were identical to those in FIGS. 2A-2H. Phorbol myristate acetate (PMA) was present in a final concentration of 50 nmol/L. Anti-TSP refers to the binding of a MoAb against thrombospondin.
as §1

platelets [5] = settings: cited from earlier work
GPIIb-IIIa = settings: cited from earlier work

Compound: Nc1ncnc2c1ncn2[C@@H]1O[C@H](COP(=O)(O)OP(=O)(O)O)[C@@H](O)[C@H]1O [ADP, adenosine diphosphate]
- Increase in number of 125I-Fg molecules bound to platelets (platelets [1]): at least a three fold increase

Compound: Gly-Arg-Gly-Asp-Ser-Pro [GRGDSP]
- Fluorescence Increase (LIBS-1 expression, anti-LIBS 1 binding), Normal ([2]; [GRGDSP] 2 μM, normal platelets): 20
- Fluorescence Increase (LIBS-1 expression, anti-LIBS 1 binding), Normal ([2]; [GRGDSP] 4 μM, normal platelets): 31
- Fluorescence Increase (LIBS-1 expression, anti-LIBS 1 binding), Normal ([2]; [GRGDSP] 10 μM, normal platelets): 48
- Fluorescence Increase (LIBS-1 expression, anti-LIBS 1 binding), Normal ([2]; [GRGDSP] 40 μM, normal platelets): 70
- Fluorescence Increase (LIBS-1 expression, anti-LIBS 1 binding), Normal ([2]; [GRGDSP] 200 μM, normal platelets): 106
- PMI-1 binding, mean fluorescence intensity ([2]; normal platelets treated with 200 μmol/L GRGDSP): 151 fluorescence units
- anti-LIBS1 binding, mean fluorescence ([2]; normal platelets with GRGDSP 200 μmol/L): 205 U
- Increase in PMI-1 binding ([2]; normal platelets, 200 μmol/L GRGDSP): 2.5 fold
- Increase in anti-LIBS1 binding caused by peptide ([2]; normal platelets, GRGDSP 200 μmol/L): fourfold increase
- PMI-1 binding, mean fluorescence intensity ([3]; Cam platelets treated with 200 μmol/L GRGDSP): 107 fluorescence units
- anti-LIBS1 binding, mean fluorescence ([3]; Cam platelets with GRGDSP 200 μmol/L): 25 U
- Change in PMI-1 binding in response to GRGDSP ([3]; Cam platelets, 200 μmol/L GRGDSP): no increase
- Change in anti-LIBS1 binding caused by GRGDSP ([3]; Cam platelets, GRGDSP 200 μmol/L): no increase
- Fluorescence Increase (LIBS-1 expression, anti-LIBS 1 binding), Cam ([3]; [GRGDSP] 2 μM, Cam platelets): 3
- Fluorescence Increase (LIBS-1 expression, anti-LIBS 1 binding), Cam ([3]; [GRGDSP] 4 μM, Cam platelets): 3
- Fluorescence Increase (LIBS-1 expression, anti-LIBS 1 binding), Cam ([3]; [GRGDSP] 10 μM, Cam platelets): 3
- Fluorescence Increase (LIBS-1 expression, anti-LIBS 1 binding), Cam ([3]; [GRGDSP] 40 μM, Cam platelets): 3
- Fluorescence Increase (LIBS-1 expression, anti-LIBS 1 binding), Cam ([3]; [GRGDSP] 200 μM, Cam platelets): 6

Compound: KYGRGDS [Lys-Tyr-Gly-Arg-Gly-Asp-Ser]
- GPIIb-IIIa in eluted fractions (ELISA) (normal GPIIb-IIIa; control extract, 332 μg GPIIb-IIIa in starting extract, eluted with GRGDSP): 20 µg
- Share of normal GPIIb-IIIa bound to KYGRGDS-Sepharose and eluted (normal GPIIb-IIIa; lysate 12 hours at 4° C., eluted with 1 mmol/L GRGDSP): approximately 10%
- GPIIb-IIIa in eluted fractions (ELISA) (Cam GPIIb-IIIa): 2.6 µg

Compound: LGGAKQAGDV [gamma(402-411)]
- anti-LIBS1 binding, fluorescence ([2]; control platelets with gamma(402-411) 400 μmol/L): 201 fluorescence U
- anti-LIBS1 binding, fluorescence ([3]; Cam platelets with gamma(402-411) 400 μmol/L): 31 U
- Change in anti-LIBS1 binding caused by gamma(402-411) ([3]; Cam platelets, gamma(402-411) 400 μmol/L): failed to increase

Compound: PAC 1
- PAC1 fluorescence of PMA-activated Cam platelets ([3]; 50 nmol/L phorbol myristate acetate (PMA)): no increase
- PAC1 binding to ADP-activated Cam platelets ([3]; ADP 100 μmol/L): complete lack of binding
- Expression of PAC1 binding sites on stimulated MPD platelets ([4]; 50 μmol/L epinephrine (not shown)): did not express PAC1 binding sites
- Expression of PAC1 binding sites on stimulated MPD platelets ([4]; 10 μm ADP): did not express PAC1 binding sites
- PAC1 binding to MPD platelets in response to PMA ([4]; PMA 50 nmol/L): bound
- Fibrinogen Binding (effect of antibody on fibrinogen binding to platelets) (platelets [5]): Decrease
- Effect of Peptides (RGD or fibrinogen gamma chain C-terminal peptides) on antibody binding (GPIIb-IIIa): Decrease
